Source: patent US20050037947A1, “INHIBITION OF DRUG BINDING TO SERUM ALBUMIN” (priority 2003, published 2005)

Target: T1, human serum albumin (Homo sapiens, UniProt P02768)
T1 construct: purchased Aventis, Bridgewater, N.J. Albuminar
Test: Serum albumin binding by surface plasmon resonance (BIACORE 3000)
Details: SPR, immobilized serum albumin, 25° C., Req divided by molecular weight; for reduction of human serum albumin binding of the Fc chimeric protein compared to the unmodified molecule: unmodified molecule bound this many times as much
Method: Analysis of macromolecular interactions was performed using surface plasmon resonance as previously described (Frostell-Karlsson et al. 2000, J. Med. Chem. 43:1986). A BIACORE 3000 instrument (Biacore AB, Piscataway, N.J.) was used and all binding interactions were performed at 25° C. A carboxymethyl-modified dextran (CM5) sensor chip (Biacore AB, Piscataway, N.J.) was used for the analysis. Serum albumin (Albuminar, Aventis, Bridgewater, N.J.) was diluted to 100 μg/mL in 10 mM sodium acetate (pH 4.5) and immobilized to one flowcell of the sensor chip, using amine coupling as described (Frostell-Karlsson et al. 2000, J. Med. Chem. 43:1986). Final immobilization level was approximately 8500 Resonance Units (RU). A “mock-immobilized” surface using a separate flowcell was created using the same procedure in the absence of serum albumin and served as a reference for the binding studies.
Proteins or peptides (analyte) were diluted in HBS-N buffer (10 mM HEPES, pH 7.4; 150 mM NaCl) and injected over the serum albumin and reference surfaces for 3 minutes at a rate of 20 μL/min. After a 35 second dissociation phase, the surface was regenerated by a 30 second pulse of 10 mM glycine (pH 2.0) at a flow rate of 60 μL/min.
The sensorgrams (RU versus time) generated for the mock-coated flowcell were automatically subtracted from the serum albumin-coated sensorgrams. Response at equilibrium (Req) was measured 30 seconds before the end of the injection phase and divided by the molecular weight of the analyte, total response as is in part, a function of molecular weight. (Frostell-Karlsson et al. 2000, J. Med. Chem. 43:1986). Samples tested included T20 linked to Fc (i.e. T20-Fc produced in CHO cells and Fc-T20 produced in E. coli), a VLA4 antagonist linked to Fc, a GnRH peptide linked to Fc, PspA, a bacterial peptide fragment of S. pneumonia surface protein A, peptide YY a peptide involved in regulation of nutrient uptake and an Fc fragment of an immunoglobulin beginning with Cys 226 served as negative controls.

| Substance | reduction of human serum albumin binding of the Fc chimeric protein compared to the unmodified molecule | human serum albumin binding of the unmodified molecule compared to the same molecule linked to Fc (ratio unmodified molecule / Fc chimeric protein) |
| --- | --- | --- |
| Fc-T20: T20 linked to Fc, produced in E. coli | more than three | – |
| T20-Fc: T20 linked to Fc, produced in CHO cells | more than three | – |
| T20: HIV fusion inhibitor, a small peptide, fragment of gp41 (SEQ ID NO: 1) [reference compound] | – | more than three |
